Measured values: patent publication US20240066131A1 (Protagonist Therapeutics, Inc., priority 2020, published 2024)
Where two headings read alike, the source gives them in different places. Starred links: 1 amine or outer side, 2 acyl side, 3 side chain; linkers in the order of their positions; H or OH if unused. Non-standard residues stand in square brackets, D forms with d. Residues, ends and D or L forms follow the SMILES beside them. Groups on a side chain read outwards from the residue. *: point of attachment. C18 diacid = O=C(O)CCCCCCCCCCCCCCCCC(=O)*; Dip = N[C@H](C(=O)O)C(c1ccccc1)c1ccccc1; γGlu = O=C(O)[C@H](CCC(=O)[*:2])N[*:1]; Palmitoyl = CCCCCCCCCCCCCCCC(=O)*; β3hF = N[C@H](CC(=O)O)Cc1ccccc1; Isovaleryl = CC(C)CC(=O)*; LAc = not defined here; AEEA = NCCOCCOCC(=O)O; Ahx = NCCCCCC(=O)O

Tests used:
[1] = target: ferroportin endogenously expressed on T47D cells (HTB 133, ATCC) (human) (UniProt Q9NP59); experiment: cell-based or functional assay
[2] = target: T1, ferroportin (Homo sapiens, UniProt Q9NP59); experiment: FPN activity assay: internalization/degradation of ferroportin-GFP in stably transfected HEK293 cells (loss of GFP fluorescence); format: cell-based; conditions: Table 6A; read-out: FPN EC50
T1 sequence (Q9NP59 1-571): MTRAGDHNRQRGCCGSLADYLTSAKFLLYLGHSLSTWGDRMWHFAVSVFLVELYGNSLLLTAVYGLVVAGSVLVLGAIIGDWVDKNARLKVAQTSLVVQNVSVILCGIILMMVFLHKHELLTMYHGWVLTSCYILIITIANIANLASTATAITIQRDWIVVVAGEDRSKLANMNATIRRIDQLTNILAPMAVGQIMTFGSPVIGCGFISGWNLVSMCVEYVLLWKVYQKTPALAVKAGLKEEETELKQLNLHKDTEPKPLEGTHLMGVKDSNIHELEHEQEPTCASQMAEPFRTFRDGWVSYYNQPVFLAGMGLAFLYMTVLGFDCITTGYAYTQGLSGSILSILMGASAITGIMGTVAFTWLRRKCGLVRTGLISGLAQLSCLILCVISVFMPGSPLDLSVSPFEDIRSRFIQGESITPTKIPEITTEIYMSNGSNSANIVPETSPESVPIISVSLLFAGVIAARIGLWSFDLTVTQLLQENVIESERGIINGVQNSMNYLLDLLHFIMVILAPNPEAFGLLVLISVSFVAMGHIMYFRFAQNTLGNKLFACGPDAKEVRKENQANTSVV
Method: Following internalization, the ferroporin protein is degraded.
A retro inverse peptide is a peptide with a reversed sequence in all D amino acids. An example is that Hy-Glu-Thr-His-NH2 becomes Hy-DHis-DThr-DGlu-NH2. The EC50 of these reference compounds for ferroportin internalization/degradation was determined according to the FPN activity assay described above. These peptides served as control standards.

[3] = target: T1, ferroportin; experiment: T47D cell-based ferroportin internalization assay in presence of mouse serum albumin (MSA), AF647 detection peptide, flow cytometry; parameters: a human breast carcinoma adherent cell line which endogenously expresses ferroportin; host or cells: T47D; conditions: second Table 6D, T47D/MSA data; with mouse serum albumin
Method: The potency of the peptides in causing ferroportin internalization was evaluated in a T47D cell-based assay. […] In this internalization assay, the potency of the test peptides was evaluated in presence of serum albumin which is the main protein component in the blood. T47D cells were maintained in RPMI media (containing required amount of fetal bovine serum) and regularly sub-cultured. […] The test peptide dilution series were allowed to incubate at room temperature for 30 min. Then the media was aspirated from the 96-well cell plate and test peptide dilution series were added. After 1 hr incubation, the media with test peptides was aspirated out and A1F647-conjugated detection peptide was added at fixed concentration of 200 nM. […] The cells were washed again after a 2 hr incubation in preparation for flow cytometry analysis. The Median Fluorescence Intensity (MFI) of the AF647-positive population was measured (after removing dead cells and non-singlets from the analysis). The MFI values were used to generate a dose-response curve and obtain IC50 potencies for the test peptides. The IC50 potencies were calculated by using 4-parameter non-linear fitting function in Graphpad Prism (Table 6D).

[4] = target: T2, human ferroportin (SLC40A1) fused in frame with GFP, stably expressed in HEK293 cells (human) (UniProt Q9NP59); experiment: cell-based or functional assay
T2 sequence (looked up): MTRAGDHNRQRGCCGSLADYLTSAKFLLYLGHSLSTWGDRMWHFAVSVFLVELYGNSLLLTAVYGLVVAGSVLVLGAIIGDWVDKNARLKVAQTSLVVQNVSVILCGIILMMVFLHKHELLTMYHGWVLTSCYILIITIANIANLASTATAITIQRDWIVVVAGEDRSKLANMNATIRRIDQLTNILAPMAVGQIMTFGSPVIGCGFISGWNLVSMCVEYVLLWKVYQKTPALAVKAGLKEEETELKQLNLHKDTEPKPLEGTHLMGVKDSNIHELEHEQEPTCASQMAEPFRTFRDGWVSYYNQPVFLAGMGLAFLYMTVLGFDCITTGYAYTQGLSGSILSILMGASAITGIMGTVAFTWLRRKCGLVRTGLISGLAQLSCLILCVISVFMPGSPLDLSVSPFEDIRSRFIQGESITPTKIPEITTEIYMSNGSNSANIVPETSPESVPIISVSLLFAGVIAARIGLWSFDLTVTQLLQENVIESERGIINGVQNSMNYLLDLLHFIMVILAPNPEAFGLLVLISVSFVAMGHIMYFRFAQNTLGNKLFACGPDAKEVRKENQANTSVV

[5] = target: T3, human ferroportin (SLC40A1) fused in frame with GFP, stably expressed in HEK293 cells (human, UniProt Q9NP59 1-571); experiment: cell-based or functional assay
T3 sequence (looked up): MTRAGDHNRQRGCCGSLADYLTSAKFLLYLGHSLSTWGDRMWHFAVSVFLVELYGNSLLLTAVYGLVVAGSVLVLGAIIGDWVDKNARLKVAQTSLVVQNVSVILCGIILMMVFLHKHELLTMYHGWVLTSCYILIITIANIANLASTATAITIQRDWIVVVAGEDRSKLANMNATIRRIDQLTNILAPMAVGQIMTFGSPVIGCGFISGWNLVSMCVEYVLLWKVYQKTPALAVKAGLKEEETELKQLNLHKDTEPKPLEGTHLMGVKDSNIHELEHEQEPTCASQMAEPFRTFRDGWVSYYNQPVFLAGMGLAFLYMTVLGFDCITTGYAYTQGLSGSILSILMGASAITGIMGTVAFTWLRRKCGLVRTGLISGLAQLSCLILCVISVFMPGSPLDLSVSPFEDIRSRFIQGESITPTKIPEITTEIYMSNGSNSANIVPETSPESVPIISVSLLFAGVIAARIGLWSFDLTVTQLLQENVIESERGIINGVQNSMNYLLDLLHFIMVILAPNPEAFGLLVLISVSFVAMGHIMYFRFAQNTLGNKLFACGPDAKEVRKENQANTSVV

[6] = target: T4, ferroportin endogenously expressed on T47D cells (HTB 133, ATCC) (human, UniProt Q9NP59 1-571); experiment: cell-based or functional assay
T4 sequence (looked up): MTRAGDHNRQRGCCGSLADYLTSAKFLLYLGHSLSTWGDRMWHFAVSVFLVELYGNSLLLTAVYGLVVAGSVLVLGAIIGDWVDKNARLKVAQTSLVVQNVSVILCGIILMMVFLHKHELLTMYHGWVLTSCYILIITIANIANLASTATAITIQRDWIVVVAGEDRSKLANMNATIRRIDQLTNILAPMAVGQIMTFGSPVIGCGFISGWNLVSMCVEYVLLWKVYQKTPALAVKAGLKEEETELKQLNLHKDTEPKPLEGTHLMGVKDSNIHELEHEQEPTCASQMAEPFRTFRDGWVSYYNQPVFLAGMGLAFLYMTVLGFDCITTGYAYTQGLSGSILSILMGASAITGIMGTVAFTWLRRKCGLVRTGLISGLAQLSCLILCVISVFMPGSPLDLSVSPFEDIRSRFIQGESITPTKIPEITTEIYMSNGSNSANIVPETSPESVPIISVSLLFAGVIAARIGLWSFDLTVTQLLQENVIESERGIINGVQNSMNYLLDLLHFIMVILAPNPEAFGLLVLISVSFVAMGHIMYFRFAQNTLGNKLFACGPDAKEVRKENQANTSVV

[7] = target: T3, human ferroportin (SLC40A1) fused in …; experiment: cell-based or functional assay; remark: listed apart in the source
[8] = target: T4, ferroportin endogenously expressed on …; experiment: cell-based or functional assay; remark: listed apart in the source
[9] = target: T2, human ferroportin (SLC40A1) fused in frame with GFP, stably expressed in HEK293 cells (human); experiment: cell-based or functional assay; remark: listed apart in the source

## Isovaleric Acid-Dap-T-H-[Dpa]-P-A-I-E-[bhPhe]-[Lys(Ahx_Palm)]-R-NH2 (peptide)
[1]
  T47D MSA IC50: 36.4 nM

## Isovaleric Acid-K-T-H-[Dpa]-P-E-[Lys(Ahx_Palm)]-NH2 (peptide)
[1]
  T47D MSA IC50: 101 nM

## CC[C@H](C)[C@H](NC(=O)[C@H](C)NC(=O)[C@@H]1CCCN1C(=O)[C@@H](NC(=O)[C@H](Cc1c[nH]cn1)NC(=O)[C@@H](NC(=O)[C@H](CCC(=O)O)NC(=O)CC(C)C)[C@@H](C)O)C(c1ccccc1)c1ccccc1)C(=O)N[C@@H](CCCCNC(=O)COCCOCCNC(=O)COCCOCCNC(=O)CCCCCNC(=O)CCCCCCCCCCCCCCCCC(=O)O)C(=O)N[C@H](CC(N)=O)Cc1ccccc1 [compound 76] (Isovaleryl-ETH[Dip]PAIK([AEEA-AEEA-Ahx-C18 diacid])[β3hF]-NH2)
[2]
  DC50: 150 nM
[3]
  IC50: 143 nM

## RI-Mini Hepcidin: Hy-DPhe-DIle-DCys-DIle-DPro-DPhe-DHis-DThr-DAsp-NH2 (peptide)
[4]
  Potency EC50 (nM): > 10000 nM

## CCCCCCCCCCCCCCCC(=O)N[C@@H](CCC(=O)NCCCC[C@H](NC(=O)[C@@H](NC(=O)[C@H](C)NC(=O)[C@@H]1CCCN1C(=O)[C@@H](NC(=O)[C@H](Cc1c[nH]cn1)NC(=O)[C@@H](NC(=O)[C@H](CCC(=O)O)NC(=O)CC(C)C)[C@@H](C)O)C(c1ccccc1)c1ccccc1)[C@@H](C)CC)C(=O)N[C@H](CC(=O)N[C@H](CCCCN)C(N)=O)Cc1ccccc1)C(=O)O [compound 131] (Isovaleryl-ETH[Dip]PAIK([γGlu-Palmitoyl])[β3hF][dK]-NH2)
[3]
  IC50: 13.3 nM

## Isovaleric Acid-K-T-H-[Dpa]-P-E-[bhPhe]-[Lys(Ahx_Palm)]-NH2 (peptide)
[1]
  T47D MSA IC50: 15.6 nM

## Isovaleryl-ETH[Dip]PAK(Gal)K([Ahx-Palmitoyl])[β3hF]-NH2 [Isovaleric Acid-E-T-H-[Dpa]-P-A-[Lys(Gal-[Lys(Ahx_Palm)]-[bhPhe]-NH2]
[5]
  FPN IC50: 42 nM
[6]
  T47D IC50: 19.1 nM

## Isovaleryl-ETH[Dip]K([Ahx-Palmitoyl])-N_Butyl_Phe [Isovaleric Acid-E-T-H-[Dpa]-[Lys(Ahx_Palm)]-N_Butyl_Phe]
[7]
  FPN IC50: 62.2 nM
[8]
  T47D IC50: 464 nM

## Isovaleryl-ETH[Dip]PA[dK](Gal)K([Ahx-Palmitoyl])[β3hF]-NH2 [Isovaleric Acid-E-T-H-[Dpa]-P-A-d[Lys(Gal-[Lys(Ahx_Palm)]-[bhPhe]-NH2]
[5]
  FPN IC50: 30.6 nM
[6]
  T47D IC50: 4.05 nM

## H-DTHFPICIF-NH2 (peptide, from a related filing) [Mini-Hepcidin 1-9: Hy-…-NH2]
[9]
  Potency EC50: 712 nM

## Isovaleryl-K(Glu)TH[Dip]PAIK([Ahx-Palmitoyl])[β3hF]-NH2 [Isovaleric Acid-[Lys(Glu-T-H-[Dpa]-P-A-I-[Lys(Ahx_Palm)]-[bhPhe]-NH2]
[7]
  FPN IC50: 27 nM
[8]
  T47D IC50: 229 nM

## Isovaleryl-ETH[Dip]PK(Gal)IK([Ahx-Palmitoyl])[β3hF]-NH2 [Isovaleric Acid-E-T-H-[Dpa]-P-[Lys(Gal-I-[Lys(Ahx_Palm)]-[bhPhe]-NH2]
[5]
  FPN IC50: 14.3 nM
[6]
  T47D IC50: 35.5 nM

## Isovaleryl-K(LAc)TH[Dip]PAIK([Ahx-Palmitoyl])[β3hF]-NH2 (reading uncertain) [Isovaleric Acid-[Lys(LAc-T-H-[Dpa]-P-A-I-[Lys(Ahx_Palm)]-[bhPhe]-NH2]
[7]
  FPN IC50: 27.5 nM
[8]
  T47D IC50: 284 nM
